Data reported in the supplement of paper PMC5998384.

Legend:
HeLa Kyoto [1] = assay: thermal stability score vs G1/S (z-score of summed log2 fold changes over temperatures); higher = more thermally stable than in G1/S
HeLa Kyoto [2] = assay: solubility change mitosis vs G1/S (difference of NP-40 vs SDS log2 ratios) (log2 ratio difference); higher = more soluble in mitosis
HeLa Kyoto [3] = assay: melting temperature (median over replicates), in situ; higher = more thermally stable
HeLa Kyoto [4] = assay: solubility in G1/S (NP-40 vs SDS abundance) (log2 ratio); higher = more soluble; details: cell cycle stage: G1/S
[5] = cell cycle stage: early G1 (4.5 h after nocodazole release)
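For melting temperature (median over replicates), in situ in this document: HeLa Kyoto cells synchronized by double thymidine or nocodazole block, proteins quantified by TMT10plex mass spectrometry, three independent biological replicates.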
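For solubility change mitosis vs G1/S (difference of NP-40 vs SDS log2 ratios) in this document: synchronized HeLa Kyoto cells (double thymidine block for G1/S, nocodazole release for mitosis), protein amounts in NP-40 versus SDS lysates quantified by mass spectrometry, three biological replicates.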
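For solubility in G1/S (NP-40 vs SDS abundance) in this document: HeLa Kyoto cells arrested at G1/S by double thymidine block, proteins quantified by TMT10plex mass spectrometry in mild NP-40 versus SDS extracts, three biological replicates.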
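For thermal stability score vs G1/S (z-score of summed log2 fold changes over temperatures) in this document: synchronized HeLa Kyoto cells, proteins quantified by TMT10plex mass spectrometry, three biological replicates, mitosis taken 0.5 h after nocodazole release, G1/S directly after double thymidine block.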

| Sequence | thermal stability score (HeLa Kyoto [1]; [5]) | thermal stability score (HeLa Kyoto [1]; cell cycle stage: mitosis) | solubility change mitosis (log2) (HeLa Kyoto [2]) | melting temperature (HeLa Kyoto [3]; cell cycle stage: G1/S) | melting temperature (HeLa Kyoto [3]; cell cycle stage: mitosis) | solubility in G1/S (log2) (HeLa Kyoto [4]) |
| --- | --- | --- | --- | --- | --- | --- |
| MAGAEGAAGRQSELEPVVSLVDVLEEDEELENEACAVLGGSDSEKCSYSQGSVKRQALYACSTCTPEGEEPAGICLACSYECHGSHKLFELYTKRNFRCDCGNSKFKNLECKLLPDKAKVNSGNKYNDNFFGLYCICKRPYPDPEDEIPDEMIQCVVCEDWFHGRHLGAIPPESGDFQEMVCQACMKRCSFLWAYAAQLAVTKISTEDDGLVRNIDGIGDQEVIKPENGEHQDSTLKEDVPEQGKDDVREVKVEQNSEPCAGSSSESDLQTVFKNESLNAESKSGCKLQELKAKQLIKKDTATYWPLNWRSKLCTCQDCMKMYGDLDVLFLTDEYDTVLAYENKGKIAQATDRSDPLMDTLSSMNRVQQVELICEYNDLKTELKDYLKRFADEGTVVKREDIQQFFEEFQSKKRRRVDGMQYYCS [UBR7] | -0.155 | 0.512 | -0.0607 | 49.9 °C | 50.7 °C | 0.163 |
| MAGAQPGVHALQLEPPTVVETLRRGSKFIKWDEETSSRNLVTLRVDPNGFFLYWTGPNMEVDTLDISSIRDTRTGRYARLPKDPKIREVLGFGGPDARLEEKLMTVVSGPDPVNTVFLNFMAVQDDTAKVWSEELFKLAMNILAQNASRNTFLRKAYTKLKLQVNQDGRIPVKNILKMFSADKKRVETALESCGLKFNRSESIRPDEFSLEIFERFLNKLCLRPDIDKILLEIGAKGKPYLTLEQLMDFINQKQRDPRLNEVLYPPLRPSQARLLIEKYEPNQQFLERDQMSMEGFSRYLGGEENGILPLEALDLSTDMTQPLSAYFINSSHNTYLTAGQLAGTSSVEMYRQALLWGCRCVELDVWKGRPPEEEPFITHGFTMTTEVPLRDVLEAIAETAFKTSPYPVILSFENHVDSAKQQAKMAEYCRSIFGDALLIEPLDKYPLAPGVPLPSPQDLMGRILVKNKKRHRPSAGGPDSAGRKRPLEQSNSALSESSAATEPSSPQLGSPSSDSCPGLSNGEEVGLEKPSLEPQKSLGDEGLNRGPYVLGPADREDEEEDEEEEEQTDPKKPTTDEGTASSEVNATEEMSTLVNYIEPVKFKSFEAARKRNKCFEMSSFVETKAMEQLTKSPMEFVEYNKQQLSRIYPKGTRVDSSNYMPQLFWNVGCQLVALNFQTLDVAMQLNAGVFEYNGRSGYLLKPEFMRRPDKSFDPFTEVIVDGIVANALRVKVISGQFLSDRKVGIYVEVDMFGLPVDTRRKYRTRTSQGNSFNPVWDEEPFDFPKVVLPTLASLRIAAFEEGGKFVGHRILPVSAIRSGYHYVCLRNEANQPLCLPALLIYTEASDYIPDDHQDYAEALINPIKHVSLMDQRARQLAALIGESEAQAGQETCQDTQSQQLGSQPSSNPTPSPLDASPRRPPGPTTSPASTSLSSPGQRDDLIASILSEVAPTPLDELRGHKALVKLRSRQERDLRELRKKHQRKAVTLTRRLLDGLAQAQAEGRCRLRPGALGGAADVEDTKEGEDEAKRYQEFQNRQVQSLLELREAQVDAEAQRRLEHLRQALQRLREVVLDANTTQFKRLKEMNEREKKELQKILDRKRHNSISEAKMRDKHKKEAELTEINRRHITESVNSIRRLEEAQKQRHDRLVAGQQQVLQQLAEEEPKLLAQLAQECQEQRARLPQEIRRSLLGEMPEGLGDGPLVACASNGHAPGSSGHLSGADSESQEENTQL [PLCB3] | 0.256 | -0.25 | 0.0123 | 52.7 °C | 51.7 °C | 0.0201 |
| MAGDVGGRSCTDSELLLHPELLSQEFLLLTLEQKNIAVETDVRVNKDSLTDLYVQHAIPLPQRDLPKNRWGKMMEKKREQHEIKNETKRSSTVDGLRKRPLIVFDGSSTSTSIKVKKTENGDNDRLKPPPQASFTSNAFRKLSNSSSSVSPLILSSNLPVNNKTEHNNNDAKQNHDLTHRKSPSGPVKSPPLSPVGTTPVKLKRAAPKEEAEAMNNLKPPQAKRKIQHVTWP [C2ORF49] | -1.3 | -1.02 | 0.015 | 50.3 °C | 51.3 °C | 0.348 |
| MAGELADKKDRDASPSKEERKRSRTPDRERDRDRDRKSSPSKDRKRHRSRDRRRGGSRSRSRSRSKSAERERRHKERERDKERDRNKKDRDRDKDGHRRDKDRKRSSLSPGRGKDFKSRKDRDSKKDEEDEHGDKKPKAQPLSLEELLAKKKAEEEAEAKPKFLSKAEREAEALKRRQQEVEERQRMLEEERKKRKQFQDLGRKMLEDPQERERRERRERMERETNGNEDEEGRQKIREEKDKSKELHAIKERYLGGIKKRRRTRHLNDRKFVFEWDASEDTSIDYNPLYKERHQVQLLGRGFIAGIDLKQQKREQSRFYGDLMEKRRTLEEKEQEEARLRKLRKKEAKQRWDDRHWSQKKLDEMTDRDWRIFREDYSITTKGGKIPNPIRSWKDSSLPPHILEVIDKCGYKEPTPIQRQAIPIGLQNRDIIGVAETGSGKTAAFLIPLLVWITTLPKIDRIEESDQGPYAIILAPTRELAQQIEEETIKFGKPLGIRTVAVIGGISREDQGFRLRMGCEIVIATPGRLIDVLENRYLVLSRCTYVVLDEADRMIDMGFEPDVQKILEHMPVSNQKPDTDEAEDPEKMLANFESGKHKYRQTVMFTATMPPAVERLARSYLRRPAVVYIGSAGKPHERVEQKVFLMSESEKRKKLLAILEQGFDPPIIIFVNQKKGCDVLAKSLEKMGYNACTLHGGKGQEQREFALSNLKAGAKDILVATDVAGRGIDIQDVSMVVNYDMAKNIEDYIHRIGRTGRAGKSGVAITFLTKEDSAVFYELKQAILESPVSSCPPELANHPDAQHKPGTILTKKRREETIFA [DDX23] | 1.14 | 3.64 | 0.24 | 48.8 °C | 50.4 °C | -1.02 |
